Results as given in patent publication US20240360228A1 (BIOLEGEND, published 2024).
Changes are numbered by the printed parent chain.

B1: AB14 (antibody, V domains shown)
VH: EVQLVESGGGLVQPKGSLKLSCAASGFTFNTYAMNWVRQAPGKGLEWVARIRSKSNNYATYYVDSVKDRFTISRDDSQSMLYLQINNLKTEDTAMYYCVRGRELGPYSAMDYWGQGTSVTVSS
VL: DIVMTQAAPSVPVTPGESVSISCRSSKSLLHSNGNTYLYWFLQRPGQSPQLLIYRMSNLASGVPDRFSGSGSGTAFTLRISRVEAEDVGLYYCMQHLEYPFTFGGGTKLEIK
notes: Hybridoma monoclonal; Same VH/VL entries as AB15; also called antibody 14; clone 14
B2: AB12 (antibody, V domains shown)
VH: B1 VH with T28A, V48I, I51L, N57F, V63A, I85M, M95V, Y107S, S108Y
VL: B1 VL with L90V, F101Y
notes: Hybridoma monoclonal; also called antibody 12; clone 12
B3: AB1 (antibody, V domains shown)
VH: QVQLKESGPGLVKPSETLSLTCTVSGFSLTSYHISWVRQPPGKGLEWMGVIWGDGSKTYNSALKSRLSISRDTSKSQVFLKMRSLKTEDTATYYCARGGDSGFAYWGQGTLVTVSS
VL: DIQMTQSPASLSASLEEIVTITCQASQDIGNWLSWYQQKPGKSPQLLIYGTTNLADGVPSRFSGSRSGTQYSLKISRLQVEDIGIYYCLQAYSVPLTFGSGTKLEIK
notes: Hybridoma monoclonal (mouse or rat); Same VH/VL entries as AB2; also called antibody 1; clone 1
B4: AB3 (antibody, V domains shown)
VH: B3 VH with S56K, K57T, R83N
VL: B3 VL
notes: Hybridoma monoclonal; also called antibody 3; clone 3
B5: AB4 (antibody, V domains shown)
VH: B3 VH with S31G, I34V, S56R, K57T, R83S
VL: B3 VL with T51A, N53S, Y71F, S93I, I106S
notes: Hybridoma monoclonal; also called antibody 4; clone 4

What follows are binders tested against T1, human CCR8 (human, UniProt P51685 1-355) (assay: flow blocking, PBMC CCR8+CD4+; competitor PE-AB5).
T1 construct: Native CCR8 on human PBMC (CCR8+ CD3+ or CCR8+ CD4+ lymphocytes); also called chemokine (C-C motif) receptor 8
Experimental: (§1) For blocking studies, 100 μL of the cell suspension were incubated with 10 μg purified isotype control, AB1, AB2, AB3, AB4, AB5, AB8, AB9, AB10, AB11, AB12, AB13, AB14, AB15, and Commercial ABI antibodies, or isotype control, as blocking agents.
(§2) After incubation with the blocking agent, the cells were incubated with 0.25 μg of the indicated PE-conjugated antibody plus anti-human CD4 APC or anti-human CD3 for another 15 minutes in the dark and then washed 2 times with Cell Staining Buffer, and acquired in a FACSCanto II flow cytometer (BD Biosciences); the data was analyzed using FCS Express (De Novo Software); MFI correspond to the CCR8+ CD4+ lymphocytes or CCR8+ CD3+ lymphocytes.
(§3) Percentage original MFI was calculated by dividing the MFI of samples blocked with AB1, AB2, AB3, AB4, AB5, AB6, AB7, AB8, AB9, AB10, AB11, AB12, AB13, AB14, AB15, and Commercial ABI antibodies, by the MFI of samples blocked with the corresponding isotype control. This value was subtracted from 100 to get a blocking percentage. The formula is shown below: […]

T1 sequence (P51685 whole entry): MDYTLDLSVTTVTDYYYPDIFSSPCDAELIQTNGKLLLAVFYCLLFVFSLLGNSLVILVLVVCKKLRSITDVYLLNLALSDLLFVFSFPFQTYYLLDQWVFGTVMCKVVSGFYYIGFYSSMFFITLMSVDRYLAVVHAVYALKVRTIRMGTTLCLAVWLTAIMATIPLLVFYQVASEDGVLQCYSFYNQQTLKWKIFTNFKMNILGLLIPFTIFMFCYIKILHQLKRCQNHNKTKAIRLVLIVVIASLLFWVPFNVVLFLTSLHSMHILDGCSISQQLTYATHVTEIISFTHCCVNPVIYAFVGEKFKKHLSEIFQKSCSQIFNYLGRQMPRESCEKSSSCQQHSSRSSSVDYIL

Binder	% Blocking [%]	% Positive cells [%]
B1	6.93	1.88
B2	-2.48	2.07
B3	89.6	0.21
B4	85.2	0.3
B5	87.1	0.26

These binders were tested against T1, human CCR8 (assay: flow blocking, PBMC CCR8+CD4+; competitor PE-AB11).
Experimental: as §1, §2, §3

Binder	% Blocking [%]	% Positive cells [%]
B1	98.5	0.03
B2	99	0.02
B3	-5.61	2.07
B4	4.59	1.87
B5	4.59	1.87

Each binder was assayed against T1, human CCR8 (assay: flow blocking, PBMC CCR8+CD4+; competitor PE-433H).
Experimental: as §1, §2

Binder	% Blocking [%]	% Positive cells [%]
B1	22.7	1.36
B2	60.2	0.7
B3	14.8	1.5
B4	7.39	1.63
B5	1.14	1.74

These binders were tested against T1, human CCR8 (assay: flow blocking, PBMC CCR8+CD4+; competitor PE-AB3).
Experimental: as §1, §2, §3

Binder	% Blocking [%]	% Positive cells [%]
B1	-27.5	2.18
B2	-34.5	2.3
B3	97.1	0.05
B4	100	0
B5	98.2	0.03

These binders were tested against T1, human CCR8 (assay: flow blocking, PBMC CCR8+CD4+; competitor PE-AB15).
Experimental: as §1, §2, §3

Binder	% Blocking [%]	% Positive cells [%]
B1	97.7	0.03
B2	94.6	0.07
B3	-30.2	1.68
B4	-7.75	1.39
B5	-33.3	1.72

Each binder was assayed against T1, human CCR8 (assay: flow blocking, PBMC CCR8+CD4+; competitor PE-AB1).
Experimental: as §1, §2, §3

Binder	% Blocking [%]	% Positive cells [%]
B1	-25.2	1.94
B2	-29.7	2.01
B3	98.7	0.02
B4	97.4	0.04
B5	100	0

The binders below were run against T1, human CCR8 (assay: flow blocking, PBMC CCR8+CD4+; competitor PE-AB14).
Experimental: as §1, §2

Binder	% Blocking [%]	% Positive cells [%]
B1	98.5	0.02
B2	100	0
B3	1.54	1.28
B4	-12.3	1.46
B5	-15.4	1.5

Each binder was assayed against T1, human CCR8 (assay: flow blocking, PBMC CCR8+CD4+; competitor PE-AB2).
Experimental: as §1, §2, §3

Binder	% Blocking [%]	% Positive cells [%]
B1	-10.4	1.81
B2	-32.9	2.18
B3	98.2	0.03
B4	98.8	0.02
B5	98.8	0.02

Each binder was assayed against T1, human CCR8 (assay: flow blocking, PBMC CCR8+CD4+; competitor PE-AB10).
Experimental: as §1, §2, §3

Binder	% Blocking [%]	% Positive cells [%]
B1	96	0.06
B2	87.8	0.18
B3	3.38	1.43
B4	-9.46	1.62
B5	0.68	1.47

Each binder was assayed against T1, human CCR8 (assay: flow blocking, PBMC CCR8+CD4+; competitor PE-AB6).
Experimental: as §1, §2

Binder	% Blocking [%]	% Positive cells [%]
B1	-3.47	2.09
B2	-15.3	2.33
B3	86.6	0.27
B4	84.7	0.31
B5	87.1	0.26

Each binder was assayed against T1, human CCR8 (assay: flow blocking, PBMC CCR8+CD4+; competitor PE-AB13).
Experimental: as §1, §2

Binder	% Blocking [%]	% Positive cells [%]
B1	96	0.08
B2	98.5	0.03
B3	10.1	1.78
B4	21.2	1.56
B5	21.7	1.55

Each binder was assayed against T1, human CCR8 (assay: flow blocking, PBMC CCR8+CD4+; competitor PE-AB12).
Experimental: as §1, §2, §3

Binder	% Blocking [%]	% Positive cells [%]
B1	99.4	0.01
B2	99.4	0.01
B3	-2.78	1.85
B4	1.67	1.77
B5	1.11	1.78

What follows are binders tested against T1, human CCR8 (assay: flow blocking, PBMC CCR8+CD4+; competitor PE-AB4).
Experimental: as §1, §2, §3

Binder	% Blocking [%]	% Positive cells [%]
B1	-10.1	1.96
B2	-33.1	2.37
B3	96.1	0.07
B4	93.3	0.12
B5	94.9	0.09
